In patent publication US20220313819A1 (ARCH ONCOLOGY, published 2022):
Like-named read-outs stand apart in the source and are kept apart here.

Experiments:
[1] = molecular target: T1, recombinant human His-CD47 (human, UniProt Q08722 19-139); experiment: ELISA, adsorbed His-CD47, pH 6
T1 construct: bought reagent; also called His-tagged human CD47 (Acro Biosystems); not shown: His tag
Protocol: (§1) Binding by soluble anti-CD47 mAbs to immobilized recombinant human CD47 and to human CD47 expressed on cells was measured in vitro. For the in vitro binding to recombinant CD47, His-CD47 (AcroBiosystems) was adsorbed to high-binding microtiter plates overnight at 4° C. The wells were washed and varying concentrations of anti-CD47 mAbs were added to the wells in buffers with a of either pH 6 or pH 8 for 1 hour. The wells were washed and then incubated with HRP-labelled secondary antibody for 1 hour at pH 6 or pH 8 followed by addition of peroxidase substrate. The apparent affinities were calculated using non-linear fit model (Graphpad Prism).

[2] = molecular target: T1, recombinant human His-CD47; experiment: ELISA, adsorbed His-CD47, pH 8
Protocol: as §1

human CD47 [3] = molecular target: T2, human CD47 (human, UniProt Q08722 19-292); experiment: flow cytometry, human RBCs
T2 construct: also called hCD47; CD47 on OV10 hCD47 cells, human RBCs, Jurkat cells and normal human cells
Protocol: (§2) Binding activities of chimeric and humanized VLX4, VLX8, and VLX9 mAbs to human CD47 on hRBCs were also determined using flow cytometry.

human CD47 [4] = molecular target: T2, human CD47; experiment: cell ELISA, OV10 hCD47 cells
Protocol: OV10 hCD47 cells were grown in IMDM medium containing 10% heat inactivated fetal bovine serum (BioWest; S01520). […] Cells were washed, various concentrations of purified antibodies added in IMDM and incubated at 37° C. for 1 hr in […]. Cells were then washed with media and incubated for an additional hour at 37° C. with HRP labelled secondary anti-human antibody (Promega) diluted 1/2500 in media. Cells were washed three times with PBS, and the peroxidase substrate 3,3′, 5,5′-tetramethylbenzidine was added (Sigma; Catalog #T4444). […] The apparent binding affinities of these clones to human OV10 hCD47 cells was determined by non-linear fit (Prism GraphPad software).

human CD47 [5] = molecular target: T2, human CD47; experiment: flow cytometry on freshly isolated human RBCs, FITC-labelled donkey anti-human antibody, MFI
Protocol: FIG. 4A. Binding of VLX8 Humanized mAbs to Human RBCs. […] RBCs were incubated for 1 hr at 37° C. with various concentrations of VLX8 mAbs, washed and incubated for 1 hr with FITC-labeled donkey anti-human antibody. Cells were washed and antibody binding measured using flow cytometry.
as §2

human CD47 [6] = molecular target: T2, human CD47; experiment: as above; remark: listed apart in the source
Protocol: FIG. 4B. Binding of VLX8 Humanized mAbs to Human RBCs. […] RBCs were incubated for 1 hr at 37° C. with various concentrations of VLX8 mAbs, washed and incubated for 1 hr with FITC-labeled donkey anti-human antibody. Cells were washed and antibody binding measured using flow cytometry.
as §2

human CD47 [7] = molecular target: T2, human CD47; experiment: as above; remark: listed apart in the source
Protocol: FIG. 7. Binding of VLX9 Humanized mAbs to Human RBCs. […] RBCs were incubated for 60 minutes at 37° C. with various concentrations of VLX9 mAbs, washed and incubated for 1 hr with FITC-labelled donkey anti-human antibody. Cells were washed and antibody binding measured using flow cytometry.
as §2

| Binder | Kd [1] [nM] | Kd [2] [nM] | Kd (human CD47 [3]) [nM] | Kd (human CD47 [4]) [nM] | EC50 (read off the curve) (human CD47 [5]) [nM] | EC50 (read off the curve) (human CD47 [6]) [nM] | EC50 (read off the curve) (human CD47 [7]) [nM] |
| --- | --- | --- | --- | --- | --- | --- | --- |
| VLX8 IgG4 PE (xi) (antibody, murine-human chimera; tied through the names Vx8mur-H03/Vx8murL03 full length chains, not by an explicit VLX8 statement; also called VLX8 IgG4PE chimera) heavy: not shown light: DIQMTQTTSSLSASLGDRVTISCRASQDISNYLNWYQQKPDGTVKLLIYYTSRLYSGVPSRFSGSGSGTDYSLTISNLEQEDIATYFCQQGNTLPWTFGGGTKLEIKRTVAAPSVFIFPPSDEQLKSGTASVVCLLNNFYPREAKVQWKVDNALQSGNSQESVTEQDSKDSTYSLSSTLTLSKADYEKHKVYACEVTHQGLSSPVTKSFNRGEC | – | – | 0.077 | 0.056 | ~0.2 | – | – |
| VLX8 IgG1 N297Q (xi) (antibody, murine-human chimera) heavy: not shown light: DIQMTQTTSSLSASLGDRVTISCRASQDISNYLNWYQQKPDGTVKLLIYYTSRLYSGVPSRFSGSGSGTDYSLTISNLEQEDIATYFCQQGNTLPWTFGGGTKLEIKRTVAAPSVFIFPPSDEQLKSGTASVVCLLNNFYPREAKVQWKVDNALQSGNSQESVTEQDSKDSTYSLSSTLTLSKADYEKHKVYACEVTHQGLSSPVTKSFNRGEC | – | – | 0.091 | 0.042 | – | – | – |
| VLX8hum_07 IgG2 (antibody, V domains shown) VH: QVQLVQSGAEVKKPGSSVKVSCKASGYSFTNYYIHWVRQAPGQGLEWMGYIDPLNGDTTYNQKFKGRVTITADESTSTAYMELSSLRSEDTAVYYCARGGKRAMDYWGQGTLVTVSS VL: DIQMTQSPSSLSASVGDRVTITCRASQSISNYLNWYQQKPGKAPKLLIYYTSRLYSGVPSRFSGSGSGTDFTLTISSLQPEDFATYYCQQGNTLPWTFGQGTKVEIKR | – | – | 0.671 | 0.46 | – | – | – |
| VLX9 IgG1 (xi) (antibody, murine-human chimera) heavy: not shown light: DVFMTQTPLSLPVSLGDQASISCRSSQNIVQSNGNTYLEWYLQKPGQSPKLLIYKVFHRFSGVPDRFSGSGSGTDFTLKISRVEAEDLGVYYCFQGSHVPWTFGGGTKVEIKRTVAAPSVFIFPPSDEQLKSGTASVVCLLNNFYPREAKVQWKVDNALQSGNSQESVTEQDSKDSTYSLSSTLTLSKADYEKHKVYACEVTHQGLSSPVTKSFNRGEC | – | – | 0.381 | 0.28 | – | – | – |
| VLX4 IgG1 (xi) (antibody, murine-human chimera, human IgG1, human kappa) heavy: not shown light: DVLMTQTPLSLPVNLGDQASISCRSRQSIVHTNGNTYLGWFLQKPGQSPKLLIYKVSNRFSGVPDRFSGSGSGTDFTLTISRVEAEDLGVYYCFQGSHVPYTFGGGTKLEIKRTVAAPSVFIFPPSDEQLKSGTASVVCLLNNFYPREAKVQWKVDNALQSGNSQESVTEQDSKDSTYSLSSTLTLSKADYEKHKVYACEVTHQGLSSPVTKSFNRGEC | – | – | 0.104 | 0.315 | – | – | – |
| VLX4 IgG1 N297Q (xi) (antibody, murine-human chimera, human IgG1-N297Q, human kappa) heavy: not shown light: DVLMTQTPLSLPVNLGDQASISCRSRQSIVHTNGNTYLGWFLQKPGQSPKLLIYKVSNRFSGVPDRFSGSGSGTDFTLTISRVEAEDLGVYYCFQGSHVPYTFGGGTKLEIKRTVAAPSVFIFPPSDEQLKSGTASVVCLLNNFYPREAKVQWKVDNALQSGNSQESVTEQDSKDSTYSLSSTLTLSKADYEKHKVYACEVTHQGLSSPVTKSFNRGEC | – | – | 0.092 | 0.258 | – | – | – |

The next lines start with the values.

| Kd [1] [nM] | Kd [2] [nM] | Kd (human CD47 [3]) [nM] | Kd (human CD47 [4]) [nM] | EC50 (read off the curve) (human CD47 [5]) [nM] | EC50 (read off the curve) (human CD47 [6]) [nM] | EC50 (read off the curve) (human CD47 [7]) [nM] | Binder |
| --- | --- | --- | --- | --- | --- | --- | --- |
| 0.091 | 0.076 | – | – | – | – | – | VLX9 IgG (murine) (antibody, V domains shown, murine IgG; tied through the names Vx9murH04/Vx9murL04; also called murine VLX9 antibody) VH: QVQLQQFGAELAKPGASVQMSCKASGYTFTNYWIHWVKQRPGQGLEWIGYTDPRTDYTEYNQKFKDKATLAADRSSSTAYMRLSSLTSEDSAVYYCAGGGRVGLGYWGHGSSVTVSS VL: DVFMTQTPLSLPVSLGDQASISCRSSQNIVQSNGNTYLEWYLQKPGQSPKLLIYKVFHRFSGVPDRFSGSGSGTDFTLKISRVEAEDLGVYYCFQGSHVPWTFGGGTKVEIK |
| – | – | 0.82 | 0.464 | – | ~0.7 | – | VLX8hum_08 IgG2 (antibody, V domains shown) VH: EVQLVQSGAEVKKPGESLKISCKGSGYSFTNYYIHWVRQMPGKGLEWMGYIDPLNGDTTYNQKFKGQVTISADKSISTAYLQWSSLKASDTAMYYCARGGKRAMDYWGQGTLVTVSS VL: DIQMTQSPSSLSASVGDRVTITCRASQSISNYLNWYQQKPGKAPKLLIYYTSRLYSGVPSRFSGSGSGTDFTLTISSLQPEDFATYYCQQGNTLPWTFGQGTKVEIKR |
| – | – | 1.74 | 0.68 | – | – | – | VLX8hum_09 IgG2 (antibody, V domains shown) VH: QVQLVQSGAEVKKPGSSVKVSCKASGYSFTNYYIHWVRQAPGQGLEWMGYIDPLNGDTTYAQKFQGRVTITADESTSTAYMELSSLRSEDTAVYYCARGGKRAMDYWGQGTLVTVSS VL: DIQMTQSPSSLSASVGDRVTITCRASQSISNYLNWYQQKPGKAPKLLIYYTSRLYSGVPSRFSGSGSGTDFTLTISSLQPEDFATYYCQQGNTLPWTFGQGTKVEIKR |
| – | – | 0.246 | 0.403 | – | – | – | VLX8hum_06 IgG2 (antibody, V domains shown) VH: QVQLVQSGAEVKKPGASVKVSCKASGYSFTNYYIHWVRQAPGQGLEWMGYIDPLNGDTTYNQKFKGRVTMTRDTSTSTVYMELSSLRSEDTAVYYCARGGKRAMDYWGQGTLVTVSS VL: DIQMTQSPSSLSASVGDRVTITCRASQSISNYLNWYQQKPGKAPKLLIYYTSRLYSGVPSRFSGSGSGTDFTLTISSLQPEDFATYYCQQGNTLPWTFGQGTKVEIKR |
| 0.13 | 0.137 | 0.742 | 0.88 | – | – | ~0.6 | VLX9 IgG2 (xi) (antibody, murine-human chimera; also called VLX9 IgG2 chimera) heavy: QVQLQQFGAELAKPGASVQMSCKASGYTFTNYWIHWVKQRPGQGLEWIGYTDPRTDYTEYNQKFKDKATLAADRSSSTAYMRLSSLTSEDSAVYYCAGGGRVGLGYWGHGSSVTVSSASTKGPSVFPLAPCSRSTSESTAALGCLVKDYFPEPVTVSWNSGALTSGVHTFPAVLQSSGLYSLSSVVTVPSSNFGTQTYTCNVDHKPSNTKVDKTVERKCCVECPPCPAPPVAGPSVFLFPPKPKDTLMISRTPEVTCVVVDVSHEDPEVQFNWYVDGVEVHNAKTKPREEQFNSTFRVVSVLTVVHQDWLNGKEYKCKVSNKGLPAPIEKTISKTKGQPREPQVYTLPPSREEMTKNQVSLTCLVKGFYPSDIAVEWESNGQPENNYKTTPPMLDSDGSFFLYSKLTVDKSRWQQGNVFSCSVMHEALHNHYTQKSLSLSPGK light: DVFMTQTPLSLPVSLGDQASISCRSSQNIVQSNGNTYLEWYLQKPGQSPKLLIYKVFHRFSGVPDRFSGSGSGTDFTLKISRVEAEDLGVYYCFQGSHVPWTFGGGTKVEIKRTVAAPSVFIFPPSDEQLKSGTASVVCLLNNFYPREAKVQWKVDNALQSGNSQESVTEQDSKDSTYSLSSTLTLSKADYEKHKVYACEVTHQGLSSPVTKSFNRGEC |
| 0.133 | 0.16 | 0.126 | 0.293 | – | – | – | VLX9 IgG4 PE (xi) (antibody, murine-human chimera) heavy: not shown light: DVFMTQTPLSLPVSLGDQASISCRSSQNIVQSNGNTYLEWYLQKPGQSPKLLIYKVFHRFSGVPDRFSGSGSGTDFTLKISRVEAEDLGVYYCFQGSHVPWTFGGGTKVEIKRTVAAPSVFIFPPSDEQLKSGTASVVCLLNNFYPREAKVQWKVDNALQSGNSQESVTEQDSKDSTYSLSSTLTLSKADYEKHKVYACEVTHQGLSSPVTKSFNRGEC |
| 0.099 | 0.135 | 0.19 | 0.275 | – | – | – | VLX9 IgG1 N297Q (xi) (antibody, murine-human chimera) heavy: not shown light: DVFMTQTPLSLPVSLGDQASISCRSSQNIVQSNGNTYLEWYLQKPGQSPKLLIYKVFHRFSGVPDRFSGSGSGTDFTLKISRVEAEDLGVYYCFQGSHVPWTFGGGTKVEIKRTVAAPSVFIFPPSDEQLKSGTASVVCLLNNFYPREAKVQWKVDNALQSGNSQESVTEQDSKDSTYSLSSTLTLSKADYEKHKVYACEVTHQGLSSPVTKSFNRGEC |
